Test [1] deals with plasmid DNA (pEGFP-C1 plasmid). The test can be described thus: In vitro DNase activity: cleavage of plasmid DNA by purified protein. The format is biochemical. The following applies: for cleavage of plasmid DNA from supercoil (SC) into Nick and Linear structures: cell free system, 37° C. On the procedure: D. The results of 1% agarose electrophoresis before which pEGFP-C1 plasmid DNA and Homo or Mus AChE protein (0, 0.5, 1 and 2 μg) were coincubated for 6 h. EcoR was used to indicate linear DNA. MK indicated molecular weight marker.
E. the plasmid splitting with increasing time of the incubation of pEGFP-C1 plasmid DNA (150 ng) and Homo or Mus AChE protein (1 μg)). The above experiment was repeated for 3 times.
G. Commercial AChE isolated from Ee1 was incubated in different doses with plasmid DNA, and two bovine serum albumins (BSA1, BSA2) purchased from different companies were used as control at the same time; after being incubated for 5 h, they were subjected to DNA gel electrophoresis.
H. Commercial AChE isolated from Ee1 was incubated with plasmid DNA for different durations, and two bovine serum albumins (BSA1, BSA2) purchased from different companies were used as control at the same time. They were then subjected to DNA gel electrophoresis.
B. The influence of pH value on AChE nuclease activity. Plasmid DNA was incubated with Homo AChE protein under different pH conditions for 3 h.
Purified plasmid DNA was used as substrate for detection. In the experiment of cleaving of plasmid DNA, 0.15 μg of plasmid DNA with a transfection-grade purity (pEGFP-C1 plasmid, Clotech) was added to 10 μl buffer system containing (5.0 mM Tris-HCl, PH 7.5; 2.5 mM CaCl2; 5.0 mM MgCl2). 1 μg (or an amount indicated in Examples) of purified AChE proteins of human or mouse origin (AChE 1-547AA corresponding to human; AChE1-548AA corresponding to mouse) was further added, and incubated in 37° C. Sampling at 6 h (or timepoints indicated in Examples).

For another test, the system named is DNA. Briefly: Dissociation constant between protein and DNA (Bio Core T100 assay). In kind it is binding. An excerpt: AChE protein and DNase I presented similar binding curves.
Meanwhile, the inventors detected environment characteristics in which AChE cleaving DNA. DNase activity of AChE was Mg2+-dependent, while Ca2+ could only play a weak supporting role (FIG. 5a). In a relatively wide pH range of pH 7.0-10.0 (similar to in vivo pH environment during apoptosis), AChE can fully play its function of cleaving DNA (FIG. 5b).

For another test, the system named is HeLa cell. The test can be described thus: Screening Method 3: DNA breakage (Tunnel) in fixed, permeabilized HeLa cells treated with protein. In kind it is cell-based, human. The following applies: AChE protein 1 μg/μl, 1-2 hr 37° C., compared with BSA group. As for the experimental part: HeLa cells were plated in 96-well plate with a 60% density, and after complete adherence, the cells were fixed with 4% PFA for 10 min, and permeabilized with 0.1% sodium citrate +0.1% Triton X-100 for 10 min, for twice. After PBS washing, cells were divided into five groups, as follows:
AChE protein group: HeLa cell, treated with AChE protein (1 μg/μl) after fixation and permeabilization treatment;
Cells of each group were incubated for 1-2 hr in 37° C.; Washed twice with PBS, and fixed with 4% PFA for 10 min. Tunnel reagent was added, incubated for 1 hr in 37° C.; and then washed three times with PBS, stained with Hoechest. Observation was performed by fluorescence microscope.

B1: Homo AChE (protein)
chain: EGREDAELLVTVRGGRLRGIRLKTPGGPVSAFLGIPFAEPPMGPRRFLPPEPKQPWSGVVDATTFQSVCYQYVDTLYPGFEGTEMWNPNRELSEDCLYLNVWTPYPRPTSPTPVLVWIYGGGFYSGASSLDVYDGRFLVQAERTVLVSMNYRVGAFGFLALPGSREAPGNVGLLDQRLALQWVQENVAAFGGDPTSVTLFGESAGAASVGMHLLSPPSRGLFHRAVLQSGAPNGPWATVGMGEARRRATQLAHLVGCPPGGTGGNDTELVACLRTRPAQVLVNHEWHVLPQESVFRFSFVPVVDGDFLSDTPEALINAGDFHGLQVLVGVVKDEGSYFLVYGAPGFSKDNESLISRAEFLAGVRVGVPQVSDLAAEAVVLHYTDWLHPEDPARLREALSDVVGDHNVVCPVAQLAGRLAAQGARVYAYVFEHRASTLSWPLWMGVPHGYEIEFIFGIPLDPSRNYTAEEKIFAQRLMRYWANFARTGDPNEPRDPKAPQWPPYTAGAQQYVSLDLR
For B1, the “cleavage of plasmid DNA from supercoil (SC) into Nick and Linear structures” value in test [1] was “effectively cleave plasmid DNA”.

B2: Mus AChE (protein)
chain: EGREDPQLLVRVRGGQLRGIRLKAPGGPVSAFLGIPFAEPPVGSRRFMPPEPKRPWSGVLDATTFQNVCYQYVDTLYPGFEGTEMWNPNRELSEDCLYLNVWTPYPRPASPTPVLIWIYGGGFYSGAASLDVYDGRFLAQVEGAVLVSMNYRVGTFGFLALPGSREAPGNVGLLDQRLALQWVQENIAAFGGDPMSVTLFGESAGAASVGMHILSLPSRSLFHRAVLQSGTPNGPWATVSAGEARRRATLLARLVGCPPGGAGGNDTELIACLRTRPAQDLVDHEWHVLPQESIFRFSFVPVVDGDFLSDTPEALINTGDFQDLQVLVGVVKDEGSYFLVYGVPGFSKDNESLISRAQFLAGVRIGVPQASDLAAEAVVLHYTDWLHPEDPTHLRDAMSAVVGDHNVVCPVAQLAGRLAAQGARVYAYIFEHRASTLTWPLWMGVPHGYEIEFIFGLPLDPSLNYTTEERIFAQRLMKYWTNFARTGDPNDPRDSKSPQWPPYTTAAQQYVSLNLKP
On to B2, for which the “cleavage of plasmid DNA from supercoil (SC) into Nick and Linear structures” value in test [1] is on record as “effectively cleave plasmid DNA”.

B3: AChE (protein, listed as Homo Sapiens)
chain: MRPPQCLLHTPSLASPLLLLLLWLLGGGVGAEGREDAELLVTVRGGRLRGIRLKTPGGPVSAFLGIPFAEPPMGPRRFLPPEPKQPWSGVVDATTFQSVCYQYVDTLYPGFEGTEMWNPNRELSEDCLYLNVWTPYPRPTSPTPVLVWIYGGGFYSGASSLDVYDGRFLVQAERTVLVSMNYRVGAFGFLALPGSREAPGNVGLLDQRLALQWVQENVAAFGGDPTSVTLFGESAGAASVGMHLLSPPSRGLFHRAVLQSGAPNGPWATVGMGEARRRATQLAHLVGCPPGGTGGNDTELVACLRTRPAQVLVNHEWHVLPQESVFRFSFVPVVDGDFLSDTPEALINAGDFHGLQVLVGVVKDEGSYFLVYGAPGFSKDNESLISRAEFLAGVRVGVPQVSDLAAEAVVLHYTDWLHPEDPARLREALSDVVGDHNVVCPVAQLAGRLAAQGARVYAYVFEHRASTLSWPLWMGVPHGYEIEFIFGIPLDPSRNYTAEEKIFAQRLMRYWANFARTGDPNEPRDPKAPQWPPYTAGAQQYVSLDLRPLEVRRGLRAQACAFWNRFLPKLLSATDTLDEAERQWKAEFHRWSSYMVHWKNQFDHYSKQDRCSDL
Broadly, the Kd is the concentration at which binding is half-saturated. High values mean a looser complex, low ones a tighter complex. With B3, the “DNA cleaving activity at pH 5-6” value in test [1] (Homo AChE protein, pH 5-6, 3 h) is given as “reduced slightly”. In addition, the “DNA cleaving activity at pH 7-10” value in test [1] (Homo AChE protein, pH 7-10, 3 h) was “can effectively function to cleave DNA”. In addition, the “affinity for DNA relative to that of DNase I” value in the test on DNA (from Kd values) is “about 74%”. The affinity at DNA (software analysis of binding curves), expressed as Kd, was 1530 nM. Besides, the “intracellular DNA breakage” value in the test on HeLa cell is “obvious breakage”.

(Values after patent US20140248254A1, “THE USE OF ACHE AS NUCLEASE” (priority 2011, published 2014).)
